Assay results published in PMC8420576.
pKd: −log10 of the molar value.

Molecular target: SARS-CoV-2 Spike RBD (residues 334–527), C-terminal Avi-His6 tag, biotinylated (SARS-CoV-2) (UniProt P0DTC2)
Assay: BLI

Substance: VHH72
- pKd: 7.57
- koff: 0.0036 s⁻¹
